Measurements taken from patent publication US20260042850A1 (LOCKBODY THERAPEUTICS, published 2026).
Positions count from the first letter of the chain named. Numbers in names are those of the source.

B1: h224G11 (humanized 224G11) (antibody, human IgG4, V domains shown)
VH: QVQLVQSGAEVKKPGASVKVSCKASGYIFTAYTMHWVRQAPGQGLEWMGWIKPNNGLANYAQKFQGRVTMTRDTSISTAYMELSRLRSDDTAVYYCARSEITTEFDYWGQGTLVTVSS
VL: DIVMTQSPDSLAVSLGERATINCKSSESVDSYANSFLHWYQQKPGQPPKLLIYRASTRESGVPDRFSGSGSGTDFTLTISSLQAEDVAVYYCQQSKEDPLTFGGGTKVEIK
notes: also called Humanized h224G11; 224G11 IgG4(S228P)
B2: MH7-2 (antibody, human IgG4, V domains shown)
VH: QVQLVQSGAEVKKPGASVKVSCKASGYTFTSYTMHWVRQAPGQGLEWMGIINPSGGSTSYAQKFQGRVTMTRDTSTSTVYMELSSLRSEDTAVYYCARQEITTEFDYWGQGTLVTVSS
VL: EIVLTQSPGTLSLSPGERATLSCRASQSVSSYANSYLHWYQQKPGQAPRLLIYRGSTRETGIPDRFSGSGSGTDFTLTISRLEPEDFAVYYCQQSKESPLTFGGGTKVEIK
B3: MH9 (antibody, IgG4, V domains shown)
VH: B2 VH
VL: B2 VL with N34Q, S95Y, K96G, E97S
B4: MH8 (antibody, IgG4, V domains shown)
VH: B2 VH
VL: B2 VL with N34Q, K96G, E97S
B5: 04E10 (antibody, IgG4, V domains shown)
VH: B1 VH with A31S, L57S, N59S, I76T, A79V, R85S, D89E, F105E
VL: B2 VL with S30D, T60S, E97S, S98E

What follows are binders tested against T1, cynomolgus monkey C-MET on stably transfected CHO-K1 cells (cynomolgus monkey, UniProt A0M8R7 25-1381 (Papio anubis entry)) (assay: flow cytometry on cyno C-MET-transfected CHO-K1 cells, IgG4(S228P), MFI).
T1 construct: also called cycMET; cyno C-MET+ CHO-K1 cells
Method: FIG. 8A-FIG. 8C. Flow cytometric binding to human and cyno C-MET+ CHO-K1 cells for library-derived and primary designer leads. Humanized h224G11, Grafted clone (Graft) and clones 08G07, MH7, MH7-1, MH7-2, MH7-3 in human IgG4(S228P) format were examined for specific binding on human C-MET-transfected (FIG. 8A), cyno C-MET-transfected (FIG. 8B) and untransfected (FIG. 8C) CHO-K1 cells. IgGs were tested at concentrations ranging from 500-0.08 nM. Concentration-dependent binding was observed against both human and cyno cell lines for all C-MET-specific antibodies but not isotype control IgG4.
(§1) Purified IgGs were tested in FACs for binding to human and cyno C-MET expressed on CHO-K1 stable cell lines and CHO-K1 wild-type cells. The IgG samples were titrated in three-fold serial dilutions starting at 500 nM to 0.08 nM. Binding of IgGs was detected with a mouse anti-human IgG conjugated to FITC. Results were analyzed by examining the Mean Fluorescence Intensity (MFI) of 10000 cells per sample in the BL-1 channel detector of a flow cytometer (Attune™ NxT Acoustic Focusing Cytometer, Invitrogen/ThermoFisher Scientific).

T1 sequence (A0M8R7 25-1381 S170N/I621T limits assumed): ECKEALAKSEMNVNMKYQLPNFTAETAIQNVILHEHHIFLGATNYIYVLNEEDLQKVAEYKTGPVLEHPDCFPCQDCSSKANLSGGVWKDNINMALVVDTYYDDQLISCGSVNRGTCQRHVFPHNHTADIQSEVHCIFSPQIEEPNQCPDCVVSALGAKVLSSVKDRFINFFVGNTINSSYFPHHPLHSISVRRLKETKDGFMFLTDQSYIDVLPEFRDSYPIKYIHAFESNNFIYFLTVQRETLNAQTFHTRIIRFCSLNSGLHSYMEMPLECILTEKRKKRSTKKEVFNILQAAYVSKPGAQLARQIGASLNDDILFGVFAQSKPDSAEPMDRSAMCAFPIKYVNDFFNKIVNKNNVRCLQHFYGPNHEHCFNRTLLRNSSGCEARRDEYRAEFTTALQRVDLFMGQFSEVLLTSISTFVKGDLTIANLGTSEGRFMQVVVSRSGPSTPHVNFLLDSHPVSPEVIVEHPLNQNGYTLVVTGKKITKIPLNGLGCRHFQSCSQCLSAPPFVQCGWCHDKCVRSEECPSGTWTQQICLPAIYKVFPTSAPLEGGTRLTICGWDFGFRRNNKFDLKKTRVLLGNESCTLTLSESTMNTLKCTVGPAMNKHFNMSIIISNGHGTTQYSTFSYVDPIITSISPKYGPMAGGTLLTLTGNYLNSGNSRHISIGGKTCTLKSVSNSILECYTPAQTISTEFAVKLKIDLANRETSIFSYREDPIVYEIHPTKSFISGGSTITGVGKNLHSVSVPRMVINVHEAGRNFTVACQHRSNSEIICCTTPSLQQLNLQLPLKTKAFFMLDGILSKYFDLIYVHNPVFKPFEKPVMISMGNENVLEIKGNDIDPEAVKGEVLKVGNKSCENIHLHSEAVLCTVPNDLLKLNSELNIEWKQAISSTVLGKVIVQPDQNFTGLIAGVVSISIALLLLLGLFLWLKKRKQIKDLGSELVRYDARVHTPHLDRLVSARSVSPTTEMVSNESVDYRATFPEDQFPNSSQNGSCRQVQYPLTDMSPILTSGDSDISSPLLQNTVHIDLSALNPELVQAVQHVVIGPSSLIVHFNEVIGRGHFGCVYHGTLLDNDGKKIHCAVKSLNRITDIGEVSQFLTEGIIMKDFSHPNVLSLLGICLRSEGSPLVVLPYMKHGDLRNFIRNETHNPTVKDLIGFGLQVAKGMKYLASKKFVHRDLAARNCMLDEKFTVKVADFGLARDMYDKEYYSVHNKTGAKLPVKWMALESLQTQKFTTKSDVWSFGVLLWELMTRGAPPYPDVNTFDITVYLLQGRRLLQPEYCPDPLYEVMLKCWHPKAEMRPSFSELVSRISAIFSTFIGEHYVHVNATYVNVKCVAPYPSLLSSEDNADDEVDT

Binder | EC50 (read off the curve) [nM]
B1 | ~0.7
B2 | ~0.5

What follows are binders tested against T2, human C-MET His tagged, monomeric (human, UniProt P08581 25-932) (assay: Alphascreen epitope competition in solution: varied IgG4(S228P) against 224G11 IgG4(S228P) binding to biotinylated human C-MET, CPS (crosstalk-corrected)).
T2 construct: also called monomeric human C-MET; biotinylated human C-MET-His
Method: FIG. 7. Epitope competition analysis of IgG4(S228P) proteins in Alphascreen. Anti-Humanized h224G11, Grafted clone (Graft) and clones 08G07, MH7, MH7-1, MH7-2, MH7-3 in human IgG4(S228P) format were titrated (in nM) in an epitope competition assay using Alphascreen technology. In this assay, library-derived and designer IgGs were analysed for their retention of the parental 224G11 epitope by competing for 224G11 IgG4(S228P) binding to human C-MET protein, in solution.
The AlphaScreen assay (Perkin Elmer) was performed in a 25 μl final volume in 384-well white microtiter plates (Greiner). The reaction buffer contained 1×PBS pH 7.3 (Oxoid, Cat. nr. BR0014G) and 0.05% (v/v) Tween® 20 (Sigma, Cat. nr. P9416). Purified IgG samples were titrated in three fold serial dilutions starting at 50 nM final concentration and incubated with biotinylated human C-MET-His (Acrobiosystems) at 1 nM final concentration for 20 minutes at room temperature. The parental IgG and the anti-human IgG4(S228P) Acceptor beads at were added and the mix was incubated for 1 hour at room temperature. Followed by addition of the Streptavidin Donor beads and incubation for 30 minutes at room temperature. The emission of light was measured in the EnVision multilabel plate reader (Perkin Elmer) and analysed using the EnVision manager software. Values were reported as Counts Per Second (CPS) and corrected for crosstalk. […]

T2 sequence (P08581 25-932): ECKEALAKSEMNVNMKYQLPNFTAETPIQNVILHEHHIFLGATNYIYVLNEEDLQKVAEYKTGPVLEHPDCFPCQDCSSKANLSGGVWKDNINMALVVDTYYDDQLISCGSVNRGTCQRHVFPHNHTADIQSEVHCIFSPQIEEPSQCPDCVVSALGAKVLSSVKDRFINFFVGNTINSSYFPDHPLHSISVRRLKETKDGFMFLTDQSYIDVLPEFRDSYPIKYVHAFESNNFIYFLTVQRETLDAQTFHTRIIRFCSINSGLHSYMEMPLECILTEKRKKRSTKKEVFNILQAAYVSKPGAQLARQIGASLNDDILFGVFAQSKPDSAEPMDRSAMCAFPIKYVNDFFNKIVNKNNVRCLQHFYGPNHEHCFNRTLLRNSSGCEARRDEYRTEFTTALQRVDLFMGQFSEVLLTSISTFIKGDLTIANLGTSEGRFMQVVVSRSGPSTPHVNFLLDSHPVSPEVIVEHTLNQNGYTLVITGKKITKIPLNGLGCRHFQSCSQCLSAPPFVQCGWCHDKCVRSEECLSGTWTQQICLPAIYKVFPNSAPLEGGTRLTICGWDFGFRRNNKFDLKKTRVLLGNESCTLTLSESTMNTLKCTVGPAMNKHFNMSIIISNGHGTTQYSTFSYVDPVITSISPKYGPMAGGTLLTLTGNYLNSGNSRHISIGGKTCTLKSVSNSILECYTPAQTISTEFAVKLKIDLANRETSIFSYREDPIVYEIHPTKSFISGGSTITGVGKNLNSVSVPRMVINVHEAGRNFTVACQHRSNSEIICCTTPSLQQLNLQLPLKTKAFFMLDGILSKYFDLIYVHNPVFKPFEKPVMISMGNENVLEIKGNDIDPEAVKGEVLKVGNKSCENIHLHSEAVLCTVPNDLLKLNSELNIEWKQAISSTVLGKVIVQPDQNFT

Binder | IC50 (read off the curve) [nM]
B1 | ~0.2

Each binder was assayed against T2, human C-MET His tagged, monomeric (assay: SPR Biacore).
Method: (§2) Affinity (KD) of purified IgGs was determined via SPR with antigen in-solution on a Biacore® 3000 (GE). A mouse anti-human antibody (CH1 specific) was immobilized on a CM5 Sensor Chip to a level of 2000 RU in acetate buffer at pH 4.5 using amine coupling following the Wizard instructions for two channels. One channel was used for background signal correction. The standard running buffer HBS-EP pH 7.4 was used. Regeneration was performed with a single injection of 10 μl of 10 mM Glycine at pH 1.5 at 20 μl/minute. IgG samples were injected for 2 minutes at 50 nM at 30 μl/min followed by and off-rate of 60 seconds. The monomeric antigen (human C-MET His tagged or cynomolgus monkey C-MET His tag) was injected in two fold serial dilutions from 100 nM down to 6 nM, for 2 minutes at 30 μl/min followed by an off-rate of 300 seconds. The obtained sensorgrams were analysed using the Biacore® 3000 evaluation (BIAevaluation) software. The KD was calculated by simultaneous fitting of the association and dissociation phases to a 1:1 Langmuir binding model.

Binder | fold loss of KD against MH7 [fold]
B3 | 10 to 20
B4 | 10 to 20

These binders were tested against T3, cynomolgus monkey C-MET His tag, monomeric (cynomolgus monkey, UniProt A0M8R7 25-932 (Papio anubis entry)) (assay: SPR Biacore).
T3 construct: also called monomeric cyno C-MET; cyCMET
Method: as §2

T3 sequence (A0M8R7 25-932 S170N/I621T): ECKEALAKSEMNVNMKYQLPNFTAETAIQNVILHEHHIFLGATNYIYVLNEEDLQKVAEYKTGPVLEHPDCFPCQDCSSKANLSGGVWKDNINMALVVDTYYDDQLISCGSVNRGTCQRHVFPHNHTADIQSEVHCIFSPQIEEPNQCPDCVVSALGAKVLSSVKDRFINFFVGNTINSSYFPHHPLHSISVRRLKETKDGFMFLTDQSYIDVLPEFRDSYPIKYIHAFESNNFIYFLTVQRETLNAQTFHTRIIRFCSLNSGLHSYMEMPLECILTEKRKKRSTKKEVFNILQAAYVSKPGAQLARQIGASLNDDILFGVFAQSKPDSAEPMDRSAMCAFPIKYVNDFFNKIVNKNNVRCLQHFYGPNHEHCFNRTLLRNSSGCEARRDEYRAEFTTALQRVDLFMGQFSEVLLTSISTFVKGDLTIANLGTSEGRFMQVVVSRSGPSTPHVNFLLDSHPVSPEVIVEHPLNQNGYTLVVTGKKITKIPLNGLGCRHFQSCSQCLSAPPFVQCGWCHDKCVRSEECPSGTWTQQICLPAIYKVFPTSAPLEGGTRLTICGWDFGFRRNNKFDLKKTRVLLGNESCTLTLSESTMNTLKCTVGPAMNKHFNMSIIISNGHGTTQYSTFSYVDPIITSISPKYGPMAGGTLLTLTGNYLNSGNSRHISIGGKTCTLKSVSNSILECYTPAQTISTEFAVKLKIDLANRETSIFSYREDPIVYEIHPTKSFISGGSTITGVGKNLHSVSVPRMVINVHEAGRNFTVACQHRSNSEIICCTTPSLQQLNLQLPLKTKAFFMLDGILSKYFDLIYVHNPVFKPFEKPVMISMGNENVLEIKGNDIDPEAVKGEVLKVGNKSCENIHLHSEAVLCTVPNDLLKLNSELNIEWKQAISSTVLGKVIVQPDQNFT

Binder | fold loss of KD against MH7 [fold]
B3 | 10 to 20
B4 | 10 to 20

These binders were tested against T4, cynomolgus monkey C-MET human Fc tagged recombinant protein (cynomolgus monkey, UniProt A0M8R7 25-932 (Papio anubis entry), limits assumed) (assay: direct titration ELISA on coated cyno C-MET-Fc, IgG4(S228P), OD 450 nm).
T4 construct: also called cyno C-MET-Fc; cyCMET
Excerpt: (§3) FIG. 6A-FIG. 6B. Direct titration ELISA for IgG binding to human and cyno C-MET-Fc proteins. Humanized h224G11, Grafted clone (Graft) and clones 08G07, MH7, MH7-1, MH7-2, MH7-3 in human IgG4(S228P) format were titrated (in nM) in a direct binding ELISA against human (FIG. 6A) and cyno (FIG. 6B) C-MET-Fc proteins.
(§4) Binding and cross-reactivity of the lead panel to the recombinant proteins was initially assessed by binding ELISA. The human C-MET human Fc tagged recombinant protein and the cynomolgus monkey C-MET human Fc tagged recombinant protein were coated to the surface of MaxiSorp™ flat-bottom 96 well plate at 1 μg/ml. The purified IgG samples were titrated in two fold serial dilutions starting from 500 nM to 0.98 nM and allowed to bind to the coated antigens. The Fabs were detected using mouse anti-c-myc antibody followed by donkey anti-mouse IgG conjugated to horseradish peroxidase. The IgGs were detected using the mouse anti-human IgG conjugated to horseradish peroxidase. Binding signals were visualized with 3,3′,5,5′-Tetramethylbenzidine Substrate Solution (TMB) and the absorbance measured at 450 nm. IgG binding analysis via ELISA on negatively charged biomolecular surfaces to calculate off-target binding and PK risk were performed as previously described (see Avery et al., 2018, MAbs 10 (2), 244-255).

T4 sequence (A0M8R7 25-932 S170N/I621T limits assumed): as the sequence (A0M8R7 25-932 S170N/I621T) above

Binder | EC50 (read off the curve) [nM]
B1 | ~0.2
B2 | ~0.2

These binders were tested against T1, cynomolgus monkey C-MET on stably … (assay: flow cytometry, C-MET CHO-K1 cells).
Method: as §1

Binder | EC50 [nM]
B5 | 2.94
B1 | 0.82
B3 | 0.65
B4 | 0.57

What follows are binders tested against T5, human C-MET on stably transfected CHO-K1 cells (human, UniProt P08581 25-1390) (assay: flow cytometry, C-MET CHO-K1 cells).
T5 construct: also called hucMET; human C-MET+ CHO-K1 cells
Method: as §1

T5 sequence (P08581 25-1390 limits assumed): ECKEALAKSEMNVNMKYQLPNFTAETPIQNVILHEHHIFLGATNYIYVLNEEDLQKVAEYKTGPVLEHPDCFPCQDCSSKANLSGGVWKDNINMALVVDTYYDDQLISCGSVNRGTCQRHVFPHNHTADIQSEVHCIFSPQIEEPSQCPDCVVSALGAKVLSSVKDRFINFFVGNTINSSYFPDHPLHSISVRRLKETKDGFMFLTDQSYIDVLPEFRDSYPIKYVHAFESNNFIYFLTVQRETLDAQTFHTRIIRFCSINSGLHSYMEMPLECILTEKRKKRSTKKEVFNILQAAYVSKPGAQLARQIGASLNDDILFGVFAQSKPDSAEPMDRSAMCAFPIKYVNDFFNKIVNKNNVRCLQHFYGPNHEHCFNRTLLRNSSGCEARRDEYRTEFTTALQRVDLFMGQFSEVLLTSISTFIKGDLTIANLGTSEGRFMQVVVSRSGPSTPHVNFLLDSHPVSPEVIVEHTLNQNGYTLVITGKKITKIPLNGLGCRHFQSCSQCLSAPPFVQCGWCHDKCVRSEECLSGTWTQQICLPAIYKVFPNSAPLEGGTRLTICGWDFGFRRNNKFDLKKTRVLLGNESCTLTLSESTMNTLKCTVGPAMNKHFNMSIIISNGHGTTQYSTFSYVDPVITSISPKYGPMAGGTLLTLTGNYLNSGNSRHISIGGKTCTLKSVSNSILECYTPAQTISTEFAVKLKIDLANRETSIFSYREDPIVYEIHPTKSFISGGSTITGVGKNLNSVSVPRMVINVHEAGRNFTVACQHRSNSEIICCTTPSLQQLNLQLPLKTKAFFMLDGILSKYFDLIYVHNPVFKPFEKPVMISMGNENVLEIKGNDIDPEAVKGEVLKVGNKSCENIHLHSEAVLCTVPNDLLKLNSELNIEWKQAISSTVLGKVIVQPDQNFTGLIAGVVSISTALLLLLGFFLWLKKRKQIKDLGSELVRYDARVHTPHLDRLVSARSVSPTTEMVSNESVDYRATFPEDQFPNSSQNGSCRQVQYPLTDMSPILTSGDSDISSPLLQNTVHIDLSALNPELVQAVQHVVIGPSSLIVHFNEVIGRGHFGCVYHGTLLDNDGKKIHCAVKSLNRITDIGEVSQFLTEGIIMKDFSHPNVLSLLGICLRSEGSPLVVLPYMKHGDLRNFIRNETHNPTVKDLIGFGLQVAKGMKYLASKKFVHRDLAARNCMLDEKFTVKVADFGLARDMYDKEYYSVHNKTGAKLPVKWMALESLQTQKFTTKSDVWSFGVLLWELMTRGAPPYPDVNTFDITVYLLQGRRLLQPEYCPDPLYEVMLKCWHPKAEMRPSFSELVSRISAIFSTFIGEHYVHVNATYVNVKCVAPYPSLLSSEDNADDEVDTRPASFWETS

Binder | EC50 [nM]
B5 | 9.66
B1 | 6.83
B3 | 1.23
B4 | 1.24

These binders were tested against T6, Insulin (assay: polyreactivity ELISA on insulin).
T6 construct: Coated surface of the polyreactivity (development risk) ELISA
Set-up: scale not given here

T6 sequence (P01308 25-54, chain 1 of 2): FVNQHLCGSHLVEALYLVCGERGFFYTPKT
T6 sequence (P01308 90-110, chain 2 of 2): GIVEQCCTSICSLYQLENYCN

Binder | reactivity score
B1 | 1
B2 | 1

What follows are binders tested against T7, human C-MET human Fc tagged recombinant protein (human, UniProt P08581 25-932) (assay: direct titration ELISA on coated human C-MET-Fc, IgG4(S228P), OD 450 nm).
T7 construct: also called human C-MET-Fc; huCMET
Excerpt: as §3, §4

T7 sequence (P08581 25-932 limits assumed): as the sequence (P08581 25-932) above

Binder | EC50 (read off the curve) [nM]
B1 | ~0.3
B2 | ~0.3

Each binder was assayed against T2, human C-MET His tagged, monomeric (assay: SPR Biacore, IgG captured, monomeric C-MET-His analyte).
Method: as §2

Binder | Kd [nM] | koff [s⁻¹] | kon [M⁻¹ s⁻¹]
B5 | 1.6 | 5e-05 | 31000
B1 | 0.47 | 4.2e-05 | 90000
B3 | 6.6 | 0.00039 | 59000
B2 | 2.12 | 0.000198 | 93200
B4 | 2.2 | 0.00015 | 66000

The binders below were run against T3, cynomolgus monkey C-MET His tag, … in the same assay as above.
Method: as §2

Binder | Kd [nM] | koff [s⁻¹] | kon [M⁻¹ s⁻¹]
B5 | 2.2 | 0.00011 | 49000
B1 | 0.46 | 0.00011 | 250000
B3 | 4.3 | 0.00048 | 110000
B2 | 0.87 | 0.000159 | 183000
B4 | 1.3 | 0.00021 | 160000

Molecular target: T1, cynomolgus monkey C-MET on stably …
Assay: flow cytometry, C-MET CHO-K1 cells
Remark: another data set of the same source
Method: as §1
(§5) Antibodies to C-MET were analysed for concentration-dependent binding at the cell surface via flow cytometry. CHO-K1 cells were stably transfected with either human or cyno C-MET full-length cDNAs. Anti-C-MET IgGs and an isotype control IgG4(S228P) were then all tested in IgG4(S228P) format, over a concentration range of 500-0.08 nM for binding to human (FIG. 5A) and cyno (FIG. 5B) CHO-K1 cells.

Binder | maximum MFI, fold over Isotype IgG4 background [fold]
B5 | > 10
B1 | > 10
B3 | > 10
B2 | > 10
B4 | > 10

Molecular target: T5, human C-MET on stably transfected …
Assay: flow cytometry, C-MET CHO-K1 cells
Remark: another data set of the same source
Method: as §1, §5

Binder | maximum MFI, fold over Isotype IgG4 background [fold]
B5 | > 10
B1 | > 10
B3 | > 10
B2 | > 10
B4 | > 10

The binders below were run against T2, human C-MET His tagged, monomeric (assay: Alphascreen epitope competition in solution: varied IgG4(S228P) against 224G11 IgG4(S228P) binding to biotinylated human C-MET, CPS).
Method: FIG. 4. Epitope competition analysis of IgG4(S228P) proteins in Alphascreen. Anti-C-MET IgG4(S228P) clones were applied in an epitope competition assay using Alphascreen technology. In this assay, library-derived and designer IgGs were analysed for their retention of the parental 224G11 epitope by competing for 224G11 IgG4(S228P) binding to human C-MET protein, in solution.
The AlphaScreen assay (Perkin Elmer) was performed in a 25 μl final volume in 384-well white microtiter plates (Greiner). The reaction buffer contained 1×PBS pH 7.3 (Oxoid, Cat. nr. BR0014G) and 0.05% (v/v) Tween® 20 (Sigma, Cat. nr. P9416). Purified IgG samples were titrated in three fold serial dilutions starting at 50 nM final concentration and incubated with biotinylated human C-MET-His (Acrobiosystems) at 1 nM final concentration for 20 minutes at room temperature. The parental IgG and the anti-human IgG4(S228P) Acceptor beads at were added and the mix was incubated for 1 hour at room temperature. Followed by addition of the Streptavidin Donor beads and incubation for 30 minutes at room temperature. The emission of light was measured in the EnVision multilabel plate reader (Perkin Elmer) and analysed using the EnVision manager software. Values were reported as Counts Per Second (CPS) and corrected for crosstalk.

Binder | IC50 (read off the curve) [nM]
B5 | ~2
